Test results: IntAct's records for PubMed 16520382

B1: SHC-transforming protein 1 (Homo sapiens), P29353-1 (parent)
chain: MDLLPPKPKYNPLRNESLSSLEEGASGSTPPEELPSPSASSLGPILPPLPGDDSPTTLCSFFPRMSNLRLANPAGGRPGSKGEPGRAADDGEGIVGAAMPDSGPLPLLQDMNKLSGGGGRRTRVEGGQLGGEEWTRHGSFVNKPTRGWLHPNDKVMGPGVSYLVRYMGCVEVLQSMRALDFNTRTQVTREAISLVCEAVPGAKGATRRRKPCSRPLSSILGRSNLKFAGMPITLTVSTSSLNLMAADCKQIIANHHMQSISFASGGDPDTAEYVAYVAKDPVNQRACHILECPEGLAQDVISTIGQAFELRFKQYLRNPPKLVTPHDRMAGFDGSAWDEEEEEPPDHQYYNDFPGKEPPLGGVVDMRLREGAAPGAARPTAPNAQTPSHLGATLPVGQPVGGDPEVRKQMPPPPPCPGRELFDDPSYVNVQNLDKARQAVGGAGPPNPAINGSAPRDLFDMKPFEDALRVPPPPQSVSMAEQLRGEPWFHGKLSRREAEALLQLNGDFLVRESTTTPGQYVLTGLQSGQPKHLLLVDPEGVVRTKDHRFESVSHLISYHMDNHLPIISAGSELCLQQPVERKL

Variants of: B1
Conditions: with grb2_human GRB2, P62993
Sequence of grb2_human GRB2, P62993 (P62993 whole entry, looked up): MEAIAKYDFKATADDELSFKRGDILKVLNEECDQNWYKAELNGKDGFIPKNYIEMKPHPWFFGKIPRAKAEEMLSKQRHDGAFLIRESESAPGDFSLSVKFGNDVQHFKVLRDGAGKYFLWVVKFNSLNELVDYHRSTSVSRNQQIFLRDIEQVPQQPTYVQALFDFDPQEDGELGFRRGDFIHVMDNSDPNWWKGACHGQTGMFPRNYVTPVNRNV
With MDLLPPKPKYNPLRNESLSSLEEGASGSTPPEELPSPSASSLGPILAPLAGDDSPTTLCSFFPRMSNLRLANPAGGRPGSKGEPGRAADDGEGIVGAAMPDSGPLPLLQDMNKLSGGGGRRTRVEGGQLGGEEWTRHGSFVNKPTRGWLHPNDKVMGPGVSYLVRYMGCVEVLQSMRALDFNTRTQVTREAISLVCEAVPGAKGATRRRKPCSRPLSSILGRSNLKFAGMPITLTVSTSSLNLMAADCKQIIANHHMQSISFASGGDPDTAEYVAYVAKDPVNQRACHILECPEGLAQDVISTIGQAFELRFKQYLRNPPKLVTPHDRMAGFDGSAWDEEEEEPPDHQYYNDFPGKEPPLGGVVDMRLREGAAPGAARPTAPNAQTPSHLGATLPVGQPVGGDPEVRKQMPPPPPCPGRELFDDPSYVNVQNLDKARQAVGGAGPPNPAINGSAPRDLFDMKPFEDALRVPPPPQSVSMAEQLRGEPWFHGKLSRREAEALLQLNGDFLVRESTTTPGQYVLTGLQSGQPKHLLLVDPEGVVRTKDHRFESVSHLISYHMDNHLPIISAGSELCLQQPVERKL [P47A;P50A] the “effect of a mutation on the interaction” value was “decreasing interaction”.
